Laboratory results as given in US12692303 (QYUNS THERAPEUTICS, dated 2026).

T1: IL-23 mutant W137D (human, UniProt Q9NPF7 20-189; P29460 23-328)
T1 construct: 293F cell supernatant
T1 chain 1: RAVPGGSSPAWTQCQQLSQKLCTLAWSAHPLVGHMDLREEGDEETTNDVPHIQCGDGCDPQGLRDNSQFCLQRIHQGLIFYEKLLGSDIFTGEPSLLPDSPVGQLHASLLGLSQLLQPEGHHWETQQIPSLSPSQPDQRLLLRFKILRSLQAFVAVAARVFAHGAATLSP
T1 chain 2: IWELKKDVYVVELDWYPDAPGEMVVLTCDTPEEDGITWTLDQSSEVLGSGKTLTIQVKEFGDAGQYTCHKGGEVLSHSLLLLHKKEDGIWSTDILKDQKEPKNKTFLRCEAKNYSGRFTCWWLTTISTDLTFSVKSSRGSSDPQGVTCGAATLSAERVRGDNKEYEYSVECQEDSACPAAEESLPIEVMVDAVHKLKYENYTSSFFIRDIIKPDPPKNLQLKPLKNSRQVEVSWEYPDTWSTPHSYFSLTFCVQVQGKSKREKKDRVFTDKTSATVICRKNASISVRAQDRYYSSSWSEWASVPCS

T2: IL-23 mutant R143A (human, UniProt Q9NPF7 20-189; P29460 23-328)
T2 construct: 293F cell supernatant
T2 chain 1: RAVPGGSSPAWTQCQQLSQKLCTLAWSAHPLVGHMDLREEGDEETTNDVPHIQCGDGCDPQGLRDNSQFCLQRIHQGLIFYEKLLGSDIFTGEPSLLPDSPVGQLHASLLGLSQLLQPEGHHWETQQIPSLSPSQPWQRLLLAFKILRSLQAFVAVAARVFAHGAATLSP
T2 chain 2: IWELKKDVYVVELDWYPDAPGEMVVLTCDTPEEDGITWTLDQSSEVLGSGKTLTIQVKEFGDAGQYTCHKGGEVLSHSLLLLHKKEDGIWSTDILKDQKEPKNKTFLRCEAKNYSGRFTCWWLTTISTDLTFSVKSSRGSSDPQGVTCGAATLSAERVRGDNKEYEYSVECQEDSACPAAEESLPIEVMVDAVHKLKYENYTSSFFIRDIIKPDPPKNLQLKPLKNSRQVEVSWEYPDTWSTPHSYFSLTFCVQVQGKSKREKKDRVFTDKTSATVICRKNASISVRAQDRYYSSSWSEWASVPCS

T3: IL-23 mutant W137A (human, UniProt Q9NPF7 20-189; P29460 23-328)
T3 construct: p19 mutant plasmid co-transfected with p40 plasmid into 293F cells; used as cell supernatant
T3 chain 1: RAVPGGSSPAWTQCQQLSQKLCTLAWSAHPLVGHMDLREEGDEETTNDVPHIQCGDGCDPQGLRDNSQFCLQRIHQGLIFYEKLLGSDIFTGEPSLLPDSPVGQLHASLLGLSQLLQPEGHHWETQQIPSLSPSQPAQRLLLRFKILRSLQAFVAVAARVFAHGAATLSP
T3 chain 2: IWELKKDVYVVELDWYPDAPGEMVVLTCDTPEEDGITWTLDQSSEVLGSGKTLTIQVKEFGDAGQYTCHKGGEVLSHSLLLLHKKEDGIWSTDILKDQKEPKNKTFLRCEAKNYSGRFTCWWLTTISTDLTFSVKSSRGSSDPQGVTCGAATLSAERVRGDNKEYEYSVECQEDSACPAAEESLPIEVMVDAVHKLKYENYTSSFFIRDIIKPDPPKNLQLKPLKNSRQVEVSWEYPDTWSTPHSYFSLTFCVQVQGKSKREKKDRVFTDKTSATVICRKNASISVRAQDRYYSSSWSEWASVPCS

T4: Human interleukin 23 (hIL-23) (human, UniProt Q9NPF7 20-189; P29460 23-328)
T4 construct: Heterodimer of p19 and p40; bought (Shanghai Novoprotein); also called human IL-23
T4 sequence 1: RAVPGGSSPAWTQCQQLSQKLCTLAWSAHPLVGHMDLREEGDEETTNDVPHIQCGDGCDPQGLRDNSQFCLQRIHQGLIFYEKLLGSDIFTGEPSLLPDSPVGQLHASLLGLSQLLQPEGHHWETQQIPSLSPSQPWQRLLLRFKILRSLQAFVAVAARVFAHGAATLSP
T4 sequence 2: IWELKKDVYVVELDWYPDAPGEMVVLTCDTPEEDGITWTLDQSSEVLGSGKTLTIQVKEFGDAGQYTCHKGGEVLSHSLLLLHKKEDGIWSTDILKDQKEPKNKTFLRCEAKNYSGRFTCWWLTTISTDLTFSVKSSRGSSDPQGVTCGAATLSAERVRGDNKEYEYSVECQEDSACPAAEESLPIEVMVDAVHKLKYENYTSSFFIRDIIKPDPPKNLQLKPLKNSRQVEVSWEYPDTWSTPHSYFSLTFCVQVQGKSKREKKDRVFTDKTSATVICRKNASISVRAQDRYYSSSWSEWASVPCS

T5: IL-23-p40 (human, UniProt P29460 23-328)
T5 construct: also called p40 subunit of IL-23; IL-12/IL-23p40
T5 sequence: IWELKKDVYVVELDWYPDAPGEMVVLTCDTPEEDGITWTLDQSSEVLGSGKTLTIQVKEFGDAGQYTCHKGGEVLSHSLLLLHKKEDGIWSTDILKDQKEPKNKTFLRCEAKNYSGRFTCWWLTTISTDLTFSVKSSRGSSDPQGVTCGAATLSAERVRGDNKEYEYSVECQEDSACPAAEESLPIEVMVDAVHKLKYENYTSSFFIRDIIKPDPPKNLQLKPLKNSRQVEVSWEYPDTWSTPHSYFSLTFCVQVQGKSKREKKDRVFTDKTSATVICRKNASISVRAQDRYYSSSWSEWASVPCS

T6: Natural IL-23 (human, UniProt Q9NPF7 20-189; P29460 23-328)
T6 construct: It was detected with an anti-His antibody, so it carries a His tag
T6 sequence 1: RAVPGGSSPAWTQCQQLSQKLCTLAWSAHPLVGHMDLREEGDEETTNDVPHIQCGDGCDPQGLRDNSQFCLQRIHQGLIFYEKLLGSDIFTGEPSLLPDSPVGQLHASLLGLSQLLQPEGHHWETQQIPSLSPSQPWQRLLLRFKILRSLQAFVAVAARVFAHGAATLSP
T6 sequence 2: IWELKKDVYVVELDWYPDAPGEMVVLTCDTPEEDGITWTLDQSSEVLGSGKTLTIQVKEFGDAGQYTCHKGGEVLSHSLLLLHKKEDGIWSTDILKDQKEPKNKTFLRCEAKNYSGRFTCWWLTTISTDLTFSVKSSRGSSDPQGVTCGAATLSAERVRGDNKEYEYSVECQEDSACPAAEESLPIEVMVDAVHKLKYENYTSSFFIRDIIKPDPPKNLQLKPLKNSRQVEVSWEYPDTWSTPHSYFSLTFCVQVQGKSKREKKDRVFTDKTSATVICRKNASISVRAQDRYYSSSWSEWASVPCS

T7: IL-23 mutant F144S (human, UniProt Q9NPF7 20-189; P29460 23-328)
T7 construct: 293F cell supernatant
T7 chain 1: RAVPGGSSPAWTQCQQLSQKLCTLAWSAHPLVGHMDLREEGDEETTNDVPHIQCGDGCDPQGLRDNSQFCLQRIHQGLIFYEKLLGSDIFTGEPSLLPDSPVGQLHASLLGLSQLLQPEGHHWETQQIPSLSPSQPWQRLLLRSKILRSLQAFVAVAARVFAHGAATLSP
T7 chain 2: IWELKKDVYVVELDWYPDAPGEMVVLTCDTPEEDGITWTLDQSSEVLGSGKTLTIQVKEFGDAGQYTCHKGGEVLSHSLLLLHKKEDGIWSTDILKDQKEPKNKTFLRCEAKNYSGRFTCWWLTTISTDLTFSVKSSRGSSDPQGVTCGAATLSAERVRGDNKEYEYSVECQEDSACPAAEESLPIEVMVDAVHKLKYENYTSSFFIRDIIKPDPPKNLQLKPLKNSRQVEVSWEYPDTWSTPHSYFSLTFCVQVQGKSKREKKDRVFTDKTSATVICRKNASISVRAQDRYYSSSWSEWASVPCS

T8: IL-23 mutant L140P (human, UniProt Q9NPF7 20-189; P29460 23-328)
T8 construct: 293F cell supernatant
T8 chain 1: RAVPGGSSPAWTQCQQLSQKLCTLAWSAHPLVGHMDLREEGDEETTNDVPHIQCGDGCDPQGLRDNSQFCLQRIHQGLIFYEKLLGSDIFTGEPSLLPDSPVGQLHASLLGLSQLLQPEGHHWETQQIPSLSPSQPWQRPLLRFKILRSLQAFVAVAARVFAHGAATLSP
T8 chain 2: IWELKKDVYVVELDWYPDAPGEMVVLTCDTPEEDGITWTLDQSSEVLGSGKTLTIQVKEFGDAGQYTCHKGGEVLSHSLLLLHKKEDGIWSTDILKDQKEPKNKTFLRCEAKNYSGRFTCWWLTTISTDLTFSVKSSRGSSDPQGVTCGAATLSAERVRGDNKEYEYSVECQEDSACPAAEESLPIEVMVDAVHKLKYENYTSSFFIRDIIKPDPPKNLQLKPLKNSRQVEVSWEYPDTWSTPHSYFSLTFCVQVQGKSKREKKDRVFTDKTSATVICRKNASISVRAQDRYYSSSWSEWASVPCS


How the values were obtained:
IL-23 mutant W137D = target: T1, IL-23 mutant W137D; experiment: binding ELISA, antibody coated at 1 µg/ml, IL-23 mutant supernatant titrated, anti-His detection
Method: (§1) Mutation primers were designed through PCR method. The p19 mutant plasmid was co-transfected with p40 plasmid into 293F cells to prepare a cell supernatant containing the IL-23 mutant.
(§2) After blocking, a series of cell supernatant dilutions of IL-23 mutant diluted to a concentration ranging from 0 to 0.5 μg/ml for incubation. Then, Biotin labeled anti-His antibody and SA-HRP were added respectively for incubation, finally the substrate was added for color development, and the termination solution was added to terminate the color reaction. After termination, the ELISA plate was placed in a microplate reader to read the absorption value at 450 nm (the absorption values at 650 nm was taken as reference), and the dose effect curve was plotted and the $EC50$ value was calculated.

IL-23 mutant R143A = target: T2, IL-23 mutant R143A; experiment: as above
Method: as §1, §2

IL-23 mutant W137A = target: T3, IL-23 mutant W137A; experiment: as above
Method: as §1, §2

[1] = target: T4, Human interleukin 23 (hIL-23); experiment: SPR, Biacore T200, antibody captured on Protein A chip, IL-23 in flow, 25 °C, 1:1 model
Method: Commercialized Protein A chip was used to immobilize an appropriate amount of antibody by capture method, the Rmax was about 50 RU and the capture flow rate was 10 μl/min. The antigen was diluted by gradient, and the flow rate of the instrument was switched to 30 μl/min. The diluted antigen flowed through the reference channel and the channel of immobilized antibody in sequence from low to high concentration, and flowed through the buffer as negative control. The chip was regenerated with glycine at pH 1.5 after each binding and dissociation. Fitting was performed with the 1:1 binding model in the Kinetics option using the build-in software in the instrument, and the association rate constant k_a, dissociation rate constant […] and equilibrium dissociation constant K_D of the antibody were calculated.

[2] = target: T4, Human interleukin 23 (hIL-23); experiment: cell-based or functional assay
IL-23-p40 = target: T5, IL-23-p40; experiment: Binding ELISA: IL-23-p40 coated at 2 ug/ml, goat anti-human IgG secondary antibody, OD450 (reference 650 nm)
Method: IL-23-p40 was diluted to 2 μg/ml, added to the ELISA plate, and coated overnight at 4° C. After blocking, a series of antibody dilutions diluted to a concentration ranging from 0 to 5 μg/ml and Goat-anti-human IgG secondary antibody were added respectively for incubation, finally substrate was added for color development, and the termination solution was added to terminate the color reaction. After termination, the ELISA plate was placed in a microplate reader to read the absorption value at 450 nm (the absorption value at 650 nm was taken as reference), and the dose effect curve was plotted to analyze the binding specificity of the antibody.

Natural IL-23 = target: T6, Natural IL-23; experiment: binding ELISA, antibody coated at 1 µg/ml, IL-23 titrated, anti-His detection
IL-23 mutant F144S [3] = target: T7, IL-23 mutant F144S; experiment: binding ELISA, antibody coated at 1 µg/ml, IL-23 mutant supernatant titrated; N.D: the binding is weak, and the EC50 value is not accurate
Method: as §1, §2

IL-23 mutant L140P [4] = target: T8, IL-23 mutant L140P; experiment: as above
Method: as §1, §2

IL-23 mutant F144S [5] = target: T7, IL-23 mutant F144S; experiment: binding ELISA, antibody coated at 1 µg/ml, IL-23 mutant supernatant titrated, anti-His detection
Method: as §1, §2

IL-23 mutant L140P [6] = target: T8, IL-23 mutant L140P; experiment: as above
Method: as §1, §2

Binder | EC50 (IL-23 mutant W137D) [µg/mL] | EC50 (IL-23 mutant R143A) [µg/mL] | EC50 (IL-23 mutant W137A) [µg/mL] | Kd [1] [nM] | koff [1] [s⁻¹] | kon [1] [M⁻¹ s⁻¹] | IC50, inhibition of phosphorylation of STAT3 in HEK Blue IL-23 cells induced by IL-23 [2] [µg/mL] | IC50, inhibition of release of IFN-γ from human NK cells induced by IL-23 [2] [µg/mL] | IC50, inhibition of release of IL-17A from mouse spleen cells induced by IL-23 [2] [µg/mL] | binding result (IL-23-p40) | EC50 (Natural IL-23) [µg/mL] | binding result (IL-23 mutant F144S [3]) | binding result (IL-23 mutant L140P [4]) | EC50 (IL-23 mutant F144S [5]) [µg/mL] | EC50 (IL-23 mutant L140P [6]) [µg/mL]
QX004N (HZD90-32) (antibody, human IgG1, kappa, V domains shown, Expressed in ExpiCHO-S cells, purified on Protein A; also called humanized clone 90#; 90VH-Hu18/90VK-Hu9) VH: EVQLVESGGGLVQPGGSLRLSCAASGFSLSNHEMSWVRQAPGKGLEWIGIITTSDTTYYATWAKGRFTISRDNSKNTLYLQMNSLRAEDTAVYYCARVDIVLLSVTSRIWGQGTLVTVSS VL: DVVMTQSPSSLSASVGDRVTITCQASQSVSTYLSWYQQKPGKAPKLLIYGASNLESGVPSRFSGSGSGTDFTLTISSLQPEDFATYYCQSGYVFAGLTFGGGTKVEIKR | 0.363 | 0.0034 | 0.0501 | 0.101 | 3.5e-05 | 366000 | 0.00321 | 0.0104 | 0.0117 | no binding | 0.0017 | binds | binds |  | 
Risankizumab (antibody, V domains shown) VH: QVQLVQSGAEVKKPGSSVKVSCKASGYTFTDQTIHWMRQAPGQGLEWIGYIYPRDDSPKYNENFKGKVTITADKSTSTAYMELSSLRSEDTAVYYCAIPDRSGYAWFIYWGQGTLVTVSS VL: DIQMTQSPSSLSASVGDRVTITCKASRDVAIAVAWYQQKPGKVPKLLIYWASTRHTGVPSRFSGSGSRTDFTLTISSLQPEDVADYFCHQYSSYPFTFGSGTKLEIKR | 0.0052 | 0.307 | 0.0023 |  |  |  |  |  |  |  |  |  |  | 0.0101 | 0.0544
